Data taken from PMC10409766, “Cryo-EM structures of human zinc transporter ZnT7 reveal the mechanism of Zn^2+ uptake into the Golgi apparatus” (Nature Communications, 2023).
One block for each binder: values may come before it.

Experiments:
[1] = biological target: the molecule itself; experiment: cryo-EM structure; single-particle cryo-EM of hZnT7-Fab complexes purified by SEC in 0.02% GDN (Talos Arctica for first maps, CRYO ARM 300II for final data); samples with 1 mM EDTA, with 10 µM Zn2+ or with 200 or 300 µM Zn2+ added
[2] = biological target: T1, human ZnT7 (hZnT7) with an N-terminal PA-tag (human, UniProt Q8NEW0); experiment: ELISA + SEC; liposome ELISA on biotinylated hZnT7 proteoliposomes immobilised on streptavidin-coated microplates (with negative selection on SDS-denatured hZnT7); formation of stable complexes by fluorescence-detection SEC
T1 construct: human zinc transporter ZnT7, UniProt Q8NEW0; cDNA synthesized with codon optimization; the final model holds residues 22-376; In the antibody screening the purified protein was reconstituted into (biotinylated) proteoliposomes; also called hZnT7 WT; wild-type hZnT7

[3] = biological target: T1, human ZnT7 (hZnT7) with an N-terminal …; experiment: cryo-EM structure; single-particle cryo-EM of hZnT7-Fab complexes purified by SEC in 0.02% GDN (Talos Arctica for first maps, CRYO ARM 300II for final data); samples with 1 mM EDTA, with 10 µM Zn2+ or with 200 or 300 µM Zn2+ added; conditions: both partners purified

B1: hZnT7ΔHis-loop (residues His176 to Pro221 deleted), PA-tagged (natural protein, human)
chain: MLPLSIKDDEYKPPKFNLFGKISGWFRSILSDKTSRNLFFFLCLNLSFAFVELLYGIWSNCLGLISDSFHMFFDSTAILAGLAASVISKWRDNDAFSYGYVRAEVLAGFVNGLFLIFTAFFIFSEGVERALAPPDVHHERLLLVSILGFVVNLIGIFVFKHGGHGHSHGSGHGHSSLKETTGPSRQILQGVFLHILADTLGSIGVIASAIMMQNFGLMIADPICSILIAILIVVSVIPLLRESVGILMQRTPPLLENSLPQCYQRVQQLQGVYSLQEQHFWTLCSDVYVGTLKLIVAPDADARWILSQTHNIFTQAGVRQLYVQIDFAAM
notes: human zinc transporter ZnT7, UniProt Q8NEW0, with the major portion of the His-loop (His176 to Pro221) deleted; Primers are in Supplementary Data 1; The dimer (copies 2) follows from the 'OF-OF form' and the C2 symmetry; also called hZnT7∆His-loop; pcDNA3.1-PA-hZnT7ΔHis-loop; source: HEK293T, transfected (pcDNA3.1, PEI), purified (anti-PA-tag antibody beads, SEC)
binding result [1]: binds

B4: human ZnT7 (hZnT7) with an N-terminal PA-tag (natural protein)
chain: MLPLSIKDDEYKPPKFNLFGKISGWFRSILSDKTSRNLFFFLCLNLSFAFVELLYGIWSNCLGLISDSFHMFFDSTAILAGLAASVISKWRDNDAFSYGYVRAEVLAGFVNGLFLIFTAFFIFSEGVERALAPPDVHHERLLLVSILGFVVNLIGIFVFKHGGHGHSHGSGHGHSHSLFNGALDQAHGHVDHCHSHEVKHGAAHSHDHAHGHGHFHSHDGPSLKETTGPSRQILQGVFLHILADTLGSIGVIASAIMMQNFGLMIADPICSILIAILIVVSVIPLLRESVGILMQRTPPLLENSLPQCYQRVQQLQGVYSLQEQHFWTLCSDVYVGTLKLIVAPDADARWILSQTHNIFTQAGVRQLYVQIDFAAM
notes: human zinc transporter ZnT7, UniProt Q8NEW0; cDNA synthesized with codon optimization; the final model holds residues 22-376; In the antibody screening the purified protein was reconstituted into (biotinylated) proteoliposomes; also called hZnT7 WT; wild-type hZnT7
stoichiometry N [1]: 2

Results, then the binder that gave them:

binding result [2]: binds
B2: mouse monoclonal antibody YN7114-08 against hZnT7 (parent of Fab#1) (antibody, V domains shown)
VH: EVQLQESGPGLVAPSQSLSITCTVSGFSLTNYAVHWVRQSPGKGLEWLGVIWSNGRTDYNAAFISRLSISKDNSKSQVFFKMNSLQADDTAIYYCARKLAYEGAMDYWGQGTSVTVSS
VL: DIVLTQSPASLAVSLRRRATISCRASESVDGYGHSFMHWYQQKSGQPPKLLIYRASNLESGVPARFSGSGSRTDFTLTIDPVEADDAATYYCQQSNEDPYTFGSGTKLEIK
notes: Whole antibody as screened by liposome ELISA and fluorescence-detection SEC; source: mouse hybridoma (MRL/lpr mice immunised with hZnT7 proteoliposomes)

binding result [3]: binds
B3: Fab#1 (YN7114-08), Fab fragment of a mouse monoclonal antibody against hZnT7 (Fab, V domains shown)
VH: B2 VH
VL: B2 VL
notes: the model holds Fab heavy chain residues 1-234; also in the deposited PDB entries; the model holds Fab light chain residues 1-218; also called the Fab fragment; source: Fab fragment of a mouse monoclonal antibody (hybridoma, MRL/lpr mice immunised with hZnT7 proteoliposomes)
